Data: publication doi:10.1101/2020.09.30.318261 (bioRxiv, 2020)

Key:
Experiment in all cases: ELISA
[1] = target: SARS-CoV-2 spike S1B domain (receptor binding domain) (SARS-CoV-2 Wuhan-Hu-1, UniProt P0DTC2)
[2] = target: SARS-CoV spike S1B domain (receptor binding domain) (SARS-CoV Urbani, UniProt P59594)
[3] = target: WIV16 spike receptor binding domain (S1B domain) (SARS-like coronavirus WIV16, strain)

Measured: binding result

B1: human monoclonal antibody 47D11 (antibody, V domains shown)
VH: QVQLQESGPGLVKPSETLSLTCSVSGGSISSHYWSWIRQPPGKGLEWIGYIYYSGSTNHNPSLKSRVTISVDTSKNQFSLKLSSVTAADTAVYYCARGVLLWFGEPIFEIWGQGTMVTVSS
VL: EIVMTQSPATLSVSPGERATLSCRASQSVSSSLAWYQQKPGQAPRLLIYGASTRAPGIPARFSGSGSGTEFTLTISSLQSEDFAVYYCQQYNNWPLTFGGGTKVEI
binds: all assays above
